We go through four molecules from patent US20210024615A1 (LIVERPOOL SCHOOL OF TROPICAL MEDICINE, published 2021).

Where a chain is given by its changes, count along the chain named.

Holding throughout (assay): ELISA
(ELISA stands for enzyme-linked immunosorbent assay.)

Assay [1] has as its target T1, Siglec-2 (UniProt P20273 20-687).
T1 construct: also called CD22

For assay [2], the target named is T2, dectin-1 (UniProt Q9BXN2-2 66-201).
T2 construct: also called dec-1
T2 sequence (looked up): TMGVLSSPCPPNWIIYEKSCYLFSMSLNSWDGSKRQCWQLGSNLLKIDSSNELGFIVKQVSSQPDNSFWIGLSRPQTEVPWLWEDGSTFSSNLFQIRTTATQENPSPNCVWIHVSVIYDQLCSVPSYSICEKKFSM

The target in assay [3] is T3, clec-4d (UniProt Q8WXI8 39-215).
T3 sequence (looked up): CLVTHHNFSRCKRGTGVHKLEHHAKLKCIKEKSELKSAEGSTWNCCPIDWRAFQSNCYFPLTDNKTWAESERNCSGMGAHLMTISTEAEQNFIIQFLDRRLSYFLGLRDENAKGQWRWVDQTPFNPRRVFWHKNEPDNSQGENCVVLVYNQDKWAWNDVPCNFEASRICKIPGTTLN

In assay [4] the target is MBL (UniProt P11226 21-248).
The target of assay [5] is T4, CD23 (UniProt P06734 48-321).
T4 sequence (looked up): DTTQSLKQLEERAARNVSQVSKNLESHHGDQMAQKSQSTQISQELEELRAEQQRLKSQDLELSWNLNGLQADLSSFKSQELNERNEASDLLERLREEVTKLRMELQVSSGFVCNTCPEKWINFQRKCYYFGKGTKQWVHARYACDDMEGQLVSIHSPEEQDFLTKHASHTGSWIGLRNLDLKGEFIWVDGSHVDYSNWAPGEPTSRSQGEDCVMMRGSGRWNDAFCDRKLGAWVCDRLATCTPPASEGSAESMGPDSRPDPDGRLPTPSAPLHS

The target in assay [6] is T5, MMR (UniProt P22897 19-1383).
T5 sequence (looked up): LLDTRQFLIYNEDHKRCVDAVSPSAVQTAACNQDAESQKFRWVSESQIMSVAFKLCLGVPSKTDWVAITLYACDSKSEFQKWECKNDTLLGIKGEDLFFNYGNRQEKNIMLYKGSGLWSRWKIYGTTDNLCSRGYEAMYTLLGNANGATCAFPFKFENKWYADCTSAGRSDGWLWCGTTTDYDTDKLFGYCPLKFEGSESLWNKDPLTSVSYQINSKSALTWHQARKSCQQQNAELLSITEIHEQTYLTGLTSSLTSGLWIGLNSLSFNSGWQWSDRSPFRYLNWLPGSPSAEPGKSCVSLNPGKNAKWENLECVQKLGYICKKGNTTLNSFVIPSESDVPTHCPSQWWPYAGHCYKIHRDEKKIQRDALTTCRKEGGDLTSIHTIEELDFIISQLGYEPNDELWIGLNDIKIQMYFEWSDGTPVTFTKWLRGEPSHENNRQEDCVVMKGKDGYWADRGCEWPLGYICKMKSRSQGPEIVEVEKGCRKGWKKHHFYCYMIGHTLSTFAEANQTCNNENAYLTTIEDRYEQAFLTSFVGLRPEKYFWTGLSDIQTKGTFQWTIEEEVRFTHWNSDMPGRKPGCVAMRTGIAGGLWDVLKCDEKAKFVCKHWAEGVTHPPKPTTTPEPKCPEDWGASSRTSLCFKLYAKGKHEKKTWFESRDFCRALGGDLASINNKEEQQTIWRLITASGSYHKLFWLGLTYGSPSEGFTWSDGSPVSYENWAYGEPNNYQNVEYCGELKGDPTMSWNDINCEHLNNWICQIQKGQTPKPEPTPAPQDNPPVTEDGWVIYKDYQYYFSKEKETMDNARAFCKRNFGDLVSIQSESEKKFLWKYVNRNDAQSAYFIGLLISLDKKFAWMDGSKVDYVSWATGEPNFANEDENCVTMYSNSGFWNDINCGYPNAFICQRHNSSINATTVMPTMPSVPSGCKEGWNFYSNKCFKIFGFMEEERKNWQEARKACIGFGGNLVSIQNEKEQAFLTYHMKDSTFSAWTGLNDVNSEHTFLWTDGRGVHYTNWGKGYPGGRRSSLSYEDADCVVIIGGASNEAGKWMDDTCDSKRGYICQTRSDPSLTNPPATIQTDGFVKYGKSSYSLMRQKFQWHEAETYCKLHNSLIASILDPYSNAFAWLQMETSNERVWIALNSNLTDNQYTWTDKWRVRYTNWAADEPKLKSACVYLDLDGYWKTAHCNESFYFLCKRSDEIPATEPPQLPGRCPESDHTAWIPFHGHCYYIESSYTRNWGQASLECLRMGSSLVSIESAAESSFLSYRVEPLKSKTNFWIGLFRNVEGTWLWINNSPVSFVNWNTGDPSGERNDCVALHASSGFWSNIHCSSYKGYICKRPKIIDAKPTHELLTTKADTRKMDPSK

For assay [7], the target named is T6, tetrameric human DC-SIGN (human, UniProt Q9NNX6 66-404).
T6 sequence (looked up): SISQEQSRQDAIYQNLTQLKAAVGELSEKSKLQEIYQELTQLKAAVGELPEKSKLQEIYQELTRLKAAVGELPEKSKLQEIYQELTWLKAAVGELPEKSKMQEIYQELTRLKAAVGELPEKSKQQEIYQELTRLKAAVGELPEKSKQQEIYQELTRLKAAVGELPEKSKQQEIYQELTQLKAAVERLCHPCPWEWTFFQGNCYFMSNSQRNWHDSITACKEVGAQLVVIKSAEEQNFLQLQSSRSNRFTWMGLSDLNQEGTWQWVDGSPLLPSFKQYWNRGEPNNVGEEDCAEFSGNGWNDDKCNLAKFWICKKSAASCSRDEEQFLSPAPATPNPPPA

For assay [8], the target named is T7, clec-4a (UniProt Q9UMR7 70-237).
T7 construct: also called DCIR
T7 sequence (looked up): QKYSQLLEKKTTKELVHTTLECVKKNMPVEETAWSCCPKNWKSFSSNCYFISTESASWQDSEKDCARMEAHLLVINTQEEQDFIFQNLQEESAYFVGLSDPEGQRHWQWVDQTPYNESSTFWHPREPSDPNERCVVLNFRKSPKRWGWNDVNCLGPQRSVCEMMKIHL

Assay [9] deals with Siglec-3 (UniProt P20138 18-259).
For assay [10], the target named is human FcγRIIIA (human, UniProt P08637 17-208).
Assay [11] has as its target T8, human FcγRIIB (human, UniProt P31994 46-217).
T8 construct: also called CD32B
T8 sequence (looked up): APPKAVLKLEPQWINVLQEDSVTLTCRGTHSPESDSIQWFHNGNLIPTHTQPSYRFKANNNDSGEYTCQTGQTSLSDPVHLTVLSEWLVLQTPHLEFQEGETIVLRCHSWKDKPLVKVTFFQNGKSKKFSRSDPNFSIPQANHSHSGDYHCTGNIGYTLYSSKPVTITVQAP

Assay [12] addresses T9, dectin-2 (UniProt Q6EIG7 46-209).
T9 construct: also called dec-2
T9 sequence (looked up): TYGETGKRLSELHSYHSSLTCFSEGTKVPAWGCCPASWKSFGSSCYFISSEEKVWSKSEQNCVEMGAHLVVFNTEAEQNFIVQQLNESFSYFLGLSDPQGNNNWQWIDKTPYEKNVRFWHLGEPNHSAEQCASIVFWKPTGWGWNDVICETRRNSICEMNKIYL

Assay [13] concerns the target T10, Siglec-4 (UniProt P20916 20-516).
T10 construct: also called MAG
T10 sequence (looked up): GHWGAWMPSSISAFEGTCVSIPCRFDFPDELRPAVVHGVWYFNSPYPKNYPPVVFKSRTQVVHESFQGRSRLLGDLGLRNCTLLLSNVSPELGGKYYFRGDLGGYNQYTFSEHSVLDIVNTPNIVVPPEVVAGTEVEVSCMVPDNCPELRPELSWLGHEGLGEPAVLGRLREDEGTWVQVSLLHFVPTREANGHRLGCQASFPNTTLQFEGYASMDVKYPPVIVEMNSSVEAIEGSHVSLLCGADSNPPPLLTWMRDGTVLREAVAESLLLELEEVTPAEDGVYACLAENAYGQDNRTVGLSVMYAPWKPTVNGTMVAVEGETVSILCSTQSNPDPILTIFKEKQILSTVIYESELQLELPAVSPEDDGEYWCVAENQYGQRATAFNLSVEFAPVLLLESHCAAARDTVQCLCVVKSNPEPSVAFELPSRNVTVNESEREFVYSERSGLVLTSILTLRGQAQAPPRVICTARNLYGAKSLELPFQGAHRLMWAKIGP

The target in assay [14] is C1q (UniProt P02745 23-245; P02746 28-253; P02747 29-245).
Assay [15] has as its target human FcγRIIIB (human, UniProt O75015 17-200).
In assay [16] the target is T11, human FcγRIIA (human, UniProt P12318 36-218).
T11 sequence (looked up): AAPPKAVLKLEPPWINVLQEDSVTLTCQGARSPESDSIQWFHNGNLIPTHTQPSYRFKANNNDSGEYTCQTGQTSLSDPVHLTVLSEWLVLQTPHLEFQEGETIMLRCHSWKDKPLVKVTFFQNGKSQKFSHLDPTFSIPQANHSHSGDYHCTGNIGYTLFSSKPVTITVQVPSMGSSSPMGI

human FcγRIIIA, sequence (P08637 17-208 limits assumed): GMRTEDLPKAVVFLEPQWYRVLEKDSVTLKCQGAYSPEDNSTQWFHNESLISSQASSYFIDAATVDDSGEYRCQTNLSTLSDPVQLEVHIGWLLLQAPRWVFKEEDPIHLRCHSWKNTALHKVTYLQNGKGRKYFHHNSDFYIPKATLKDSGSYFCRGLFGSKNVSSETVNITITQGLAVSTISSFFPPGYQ
Siglec-3, sequence (P20138 18-259 limits assumed): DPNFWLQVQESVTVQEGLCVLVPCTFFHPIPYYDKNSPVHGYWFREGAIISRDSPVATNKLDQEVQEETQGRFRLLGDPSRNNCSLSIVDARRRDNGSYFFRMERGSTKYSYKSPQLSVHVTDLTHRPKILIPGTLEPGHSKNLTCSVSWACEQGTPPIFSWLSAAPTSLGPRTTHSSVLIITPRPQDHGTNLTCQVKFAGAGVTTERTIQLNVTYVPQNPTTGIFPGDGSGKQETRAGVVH
MBL, sequence (P11226 21-248 limits assumed): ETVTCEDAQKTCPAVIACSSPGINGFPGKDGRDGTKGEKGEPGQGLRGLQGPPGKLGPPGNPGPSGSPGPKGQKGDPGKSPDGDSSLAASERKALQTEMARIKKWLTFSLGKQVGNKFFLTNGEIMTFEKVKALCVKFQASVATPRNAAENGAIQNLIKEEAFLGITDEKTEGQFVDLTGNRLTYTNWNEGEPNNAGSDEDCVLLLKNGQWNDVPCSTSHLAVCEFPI
human FcγRIIIB, sequence (O75015 17-200 limits assumed): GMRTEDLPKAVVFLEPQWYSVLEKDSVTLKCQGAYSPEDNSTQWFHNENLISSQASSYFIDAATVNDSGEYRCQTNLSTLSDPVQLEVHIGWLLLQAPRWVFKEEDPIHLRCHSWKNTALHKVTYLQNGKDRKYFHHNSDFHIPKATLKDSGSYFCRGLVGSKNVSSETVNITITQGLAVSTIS
C1q, sequence (P02745 23-245, chain 1 of 3): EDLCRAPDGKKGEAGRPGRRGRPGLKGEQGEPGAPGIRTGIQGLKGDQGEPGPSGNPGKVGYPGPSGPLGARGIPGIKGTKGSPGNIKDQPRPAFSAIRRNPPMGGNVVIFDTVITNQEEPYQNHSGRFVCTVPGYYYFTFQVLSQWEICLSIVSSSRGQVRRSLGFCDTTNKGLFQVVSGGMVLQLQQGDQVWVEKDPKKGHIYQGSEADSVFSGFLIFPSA
C1q, sequence (P02746 28-253, chain 2 of 3): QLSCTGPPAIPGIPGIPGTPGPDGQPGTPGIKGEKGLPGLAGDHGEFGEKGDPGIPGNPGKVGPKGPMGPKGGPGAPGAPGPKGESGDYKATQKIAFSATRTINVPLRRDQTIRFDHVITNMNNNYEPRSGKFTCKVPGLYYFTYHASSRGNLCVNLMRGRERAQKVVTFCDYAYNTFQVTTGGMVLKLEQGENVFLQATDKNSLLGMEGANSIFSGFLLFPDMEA
C1q, sequence (P02747 29-245, chain 3 of 3): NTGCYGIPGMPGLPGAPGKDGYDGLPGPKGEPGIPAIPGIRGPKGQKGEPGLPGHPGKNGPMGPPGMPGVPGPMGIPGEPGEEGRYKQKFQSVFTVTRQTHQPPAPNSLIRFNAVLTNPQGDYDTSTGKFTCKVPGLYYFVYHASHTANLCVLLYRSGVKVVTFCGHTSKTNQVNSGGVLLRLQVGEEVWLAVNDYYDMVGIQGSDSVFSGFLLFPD

B1: [change]/[change]/[change] (other)
chain: NKTHTCPPCPAPELLGGPSVFLFPPKPKDTLMISRTPEVTCVVVDVSHEDPEVKFNWYVDGVEVHNAKTKPREEQYNSTYRVVSVLTVCLQDWLNGKEYKCKVSNKALPAPIEKTISKAKGQPREPQVYTLPPSREEMTKNQVSLTCLVKGFYPSDIAVEWESNGQPENNYKTTPPVLDSDGSFFLYSKLTVDKSRWQQGNVFSCSVMHEALHNHYTQKSLSLSPGKLVLGPPLYAVSLVMSDTAGTAY
With B1, the binding result in [1], in [2], in assay [3], in [4], in assay [5] and in assay [6] was “no binding” in each case. Further, the binding result is listed as “no binding” in assay [7]; “no binding” in assay [8]; “no binding” in assay [9]; “binds” in assay [10]; “no binding” in assay [11].

B2: [change]/[change]/[change] (other)
chain: B1 chain with N1D, N77A
B2: the binding result in [3] was “no binding”; in assay [5], “no binding”; in assay [7] it was “binds”; in assay [8], “no binding”; in [9], “no binding”; in assay [10], “no binding”. Also, the binding result in assay [11] is “binds”.

B3: [change]/[change]/[change] (other)
chain: B1 chain with N77A, A236N
With B3, the binding result in assay [1], in assay [2], in assay [3], in assay [12], in [4] and in assay [13] was “no binding” each time. Also, the binding result in [6], in assay [7], in assay [8], in assay [9], in [10] and in assay [11] was “no binding” in each case. The binding result in [14] is given as “no binding”.

B4: [change]/[change]/[change]/[change] (other)
chain: B1 chain with N77A
In the case of B4, the binding result in assay [2], in [4], in assay [6], in assay [7], in assay [8] and in assay [10] was “no binding” throughout. Moreover, the binding result in [11], in [15] and in assay [16] was “no binding” each time.
